This data set deals with the molecule itself. Kind of data set: cryo-EM structure.

Consider one protein from publication PMC11303396 (Nature Communications, 2024).

B1: mouse ClC-3b I607T mutant (natural protein, UniProt P51791 1-818, looked up)
chain: MESEQLFHRGYYRNSYNSITSASSDEELLDGAGAIMDFQTSEDDNLLDGDTAAGTHYTMTNGGSINSSTHLLDLLDEPIPGVGTYDDFHTIDWVREKCKDRERHRRINSKKKESAWEMTKSLYDAWSGWLVVTLTGLASGALAGLIDIAADWMTDLKEGICLSALWYNHEQCCWGSNETTFEERDKCPQWKTWAELIIGQAEGPGSYIMNYIMYIFWALSFAFLAVSLVKVFAPYACGSGIPEIKTILSGFIIRGYLGKWTLMIKTITLVLAVASGLSLGKEGPLVHVACCCGNIFSYLFPKYSTNEAKKREVLSAASAAGVSVAFGAPIGGVLFSLEEVSYYFPLKTLWRSFFAALVAAFVLRSINPFGNSRLVLFYVEYHTPWYLFELFPFILLGVFGGLWGAFFIRANIAWCRRRKSTKFGKYPVLEVIIVAAITAVIAFPNPYTRLNTSELIKELFTDCGPLESSSLCDYRNDMNASKIVDDIPDRPAGVGVYSAIWQLCLALIFKIIMTVFTFGIKVPSGLFIPSMAIGAIAGRIVGIAVEQLAYYHHDWFIFKEWCEVGADCITPGLYAMVGAAACLGGVTRMTVSLVVIVFELTGGLEYTVPLMAAVMTSKWVGDAFGREGIYEAHIRLNGYPFLDAKEEFTHTTLAADVMRPRRSDPPLAVLTQDNMTVDDIENMINETSYNGFPVIMSKESQRLVGFALRRDLTIAIESARKKQEGIVGSSRVCFAQHTPSLPAESPRPLKLRSILDMSPFTVTDHTPMEIVVDIFRKLGLRQCLVTHNGIVLGIITKKDILRHMAQTANQDPASIMFN
On to B1, for which the binding result is “binds”.
